In the supplement of paper PMC9112550, “Optimization of the antimicrobial peptide Bac7 by deep mutational scanning” (BMC Biology, 2022):

Tested on: Escherichia coli TOP10
Experiment: shrunken log2 fold change of peptide-encoding DNA abundance (4.5 h post-induction vs induction); higher = less antimicrobial activity (less host growth inhibition)
Conditions: time post-induction: 4.5 h; library: site-saturation at positions 5, 18, 19, 20
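Note: peptides expressed intracellularly from a pBAD plasmid library in pooled LB shake-flask culture, induced with 0.3% L-arabinose, DNA abundance read by NGS, three biological replicates, DESeq2 with apeglm shrinkage.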

In order of rising “shrunken log2 fold change” value:
1. RRIRKRPPRLPRPRPRPWHVPRP  -1.06
2. RRIRHRPPRLPRPRPRPVIMPRP  -1
3. RRIRFRPPRLPRPRPRPCVPPRP  -0.835
4. RRIRIRPPRLPRPRPRPSQNPRP  -0.766
5. RRIRYRPPRLPRPRPRPLLVPRP  -0.692
6. RRIRFRPPRLPRPRPRPHFNPRP  -0.692
7. RRIRVRPPRLPRPRPRPNHIPRP  -0.651
8. RRIRFRPPRLPRPRPRPSIYPRP  -0.615
9. RRIRVRPPRLPRPRPRPYNDPRP  -0.609
10. RRIRCRPPRLPRPRPRPLIVPRP  -0.596
11. RRIRIRPPRLPRPRPRPKIDPRP  -0.573
12. RRIRSRPPRLPRPRPRPCNLPRP  -0.561
13. RRIRIRPPRLPRPRPRPATLPRP  -0.559
14. RRIRMRPPRLPRPRPRPQIYPRP  -0.464
15. RRIRSRPPRLPRPRPRPVYMPRP  -0.461
16. RRIRVRPPRLPRPRPRPDYIPRP  -0.381
17. RRIRCRPPRLPRPRPRPCHRPRP  -0.371
18. RRIRYRPPRLPRPRPRPVVEPRP  -0.34
19. RRIRTRPPRLPRPRPRPYNLPRP  -0.336
20. RRIRCRPPRLPRPRPRPMFWPRP  -0.327
21. RRIRTRPPRLPRPRPRPLCFPRP  -0.326
22. RRIRDRPPRLPRPRPRPAFYPRP  -0.305
23. RRIRPRPPRLPRPRPRPYCSPRP  -0.294
24. RRIRHRPPRLPRPRPRPTIWPRP  -0.284
25. RRIRRRPPRLPRPRPRPHMYPRP  -0.272
26. RRIRYRPPRLPRPRPRPMGGPRP  -0.264
27. RRIRARPPRLPRPRPRPPILPRP  -0.261
28. RRIRCRPPRLPRPRPRPCIYPRP  -0.253
29. RRIRTRPPRLPRPRPRPIEMPRP  -0.25
30. RRIRMRPPRLPRPRPRPSLIPRP  -0.245
31. RRIRYRPPRLPRPRPRPGYQPRP  -0.241
32. RRIRCRPPRLPRPRPRPYAQPRP  -0.227
33. RRIRVRPPRLPRPRPRPLFYPRP  -0.22
34. RRIRQRPPRLPRPRPRPHTKPRP  -0.213
35. RRIRNRPPRLPRPRPRPIVHPRP  -0.205
36. RRIRDRPPRLPRPRPRPDYNPRP  -0.204
37. RRIRFRPPRLPRPRPRPLKCPRP  -0.189
38. RRIRVRPPRLPRPRPRPKYPPRP  -0.188
39. RRIRMRPPRLPRPRPRPDNFPRP  -0.184
40. RRIRFRPPRLPRPRPRPQQCPRP  -0.181
41. RRIRPRPPRLPRPRPRPQKNPRP  -0.169
42. RRIRIRPPRLPRPRPRPWFYPRP  -0.161
43. RRIRDRPPRLPRPRPRPPIVPRP  -0.161
44. RRIRQRPPRLPRPRPRPRQHPRP  -0.141
45. RRIRHRPPRLPRPRPRPKCKPRP  -0.14
46. RRIRWRPPRLPRPRPRPPYTPRP  -0.137
47. RRIRSRPPRLPRPRPRPYKCPRP  -0.137
48. RRIRWRPPRLPRPRPRPQCHPRP  -0.13
49. RRIRFRPPRLPRPRPRPVTIPRP  -0.118
50. RRIRRRPPRLPRPRPRPWHQPRP  -0.111
51. RRIRQRPPRLPRPRPRPSGFPRP  -0.102
52. RRIRWRPPRLPRPRPRPIMPPRP  -0.0977
53. RRIRQRPPRLPRPRPRPHACPRP  -0.0973
54. RRIRSRPPRLPRPRPRPVAYPRP  -0.0936
55. RRIRARPPRLPRPRPRPCSIPRP  -0.092
56. RRIRFRPPRLPRPRPRPRQTPRP  -0.0912
57. RRIRRRPPRLPRPRPRPCLGPRP  -0.0846
58. RRIRPRPPRLPRPRPRPEWSPRP  -0.0838
59. RRIRPRPPRLPRPRPRPFTGPRP  -0.0818
60. RRIRPRPPRLPRPRPRPEIIPRP  -0.0816
61. RRIRDRPPRLPRPRPRPQEPPRP  -0.0802
62. RRIRCRPPRLPRPRPRPHLGPRP  -0.0785
63. RRIRPRPPRLPRPRPRPSTPPRP  -0.0766
64. RRIRMRPPRLPRPRPRPPKYPRP  -0.0762
65. RRIRVRPPRLPRPRPRPMCHPRP  -0.0674
66. RRIRMRPPRLPRPRPRPVWCPRP  -0.0672
67. RRIRNRPPRLPRPRPRPMGNPRP  -0.0658
68. RRIRHRPPRLPRPRPRPVWCPRP  -0.0641
69. RRIRNRPPRLPRPRPRPQHEPRP  -0.0581
70. RRIRFRPPRLPRPRPRPQAYPRP  -0.0572
71. RRIRKRPPRLPRPRPRPITLPRP  -0.0554
72. RRIRDRPPRLPRPRPRPGICPRP  -0.0538
73. RRIRCRPPRLPRPRPRPAQVPRP  -0.053
74. RRIRHRPPRLPRPRPRPEVLPRP  -0.0421
75. RRIRQRPPRLPRPRPRPSPIPRP  -0.0339
76. RRIRARPPRLPRPRPRPSGTPRP  -0.0328
77. RRIRDRPPRLPRPRPRPGNLPRP  -0.0298
78. RRIRPRPPRLPRPRPRPPCNPRP  -0.0234
79. RRIRSRPPRLPRPRPRPPRYPRP  -0.0232
80. RRIRVRPPRLPRPRPRPHLPPRP  -0.0222
81. RRIRVRPPRLPRPRPRPCNEPRP  -0.0213
82. RRIRQRPPRLPRPRPRPHGWPRP  -0.0188
83. RRIRERPPRLPRPRPRPDMFPRP  -0.0153
84. RRIRTRPPRLPRPRPRPGIRPRP  -0.0147
85. RRIRQRPPRLPRPRPRPQARPRP  -0.0121
86. RRIRYRPPRLPRPRPRPYGQPRP  -0.0112
87. RRIRVRPPRLPRPRPRPGLTPRP  -0.011
88. RRIRSRPPRLPRPRPRPDNRPRP  -0.00987
89. RRIRNRPPRLPRPRPRPEDCPRP  -0.00844
90. RRIRERPPRLPRPRPRPWRLPRP  -0.00145
91. RRIRDRPPRLPRPRPRPYDIPRP  -0.00136
92. RRIRKRPPRLPRPRPRPIVQPRP  0.000772
93. RRIRRRPPRLPRPRPRPNLCPRP  0.00272
94. RRIRKRPPRLPRPRPRPCPCPRP  0.00911
95. RRIRGRPPRLPRPRPRPKAKPRP  0.017
96. RRIRQRPPRLPRPRPRPKTAPRP  0.0173
97. RRIRERPPRLPRPRPRPMQKPRP  0.0175
98. RRIRPRPPRLPRPRPRPKTMPRP  0.0176
99. RRIRFRPPRLPRPRPRPKAWPRP  0.0254
100. RRIRWRPPRLPRPRPRPFTGPRP  0.0256
101. RRIRFRPPRLPRPRPRPKMKPRP  0.0379
102. RRIRLRPPRLPRPRPRPVHPPRP  0.039
103. RRIRLRPPRLPRPRPRPPVFPRP  0.0392
104. RRIRNRPPRLPRPRPRPWHRPRP  0.049
105. RRIRYRPPRLPRPRPRPTSQPRP  0.054
106. RRIRIRPPRLPRPRPRPRGVPRP  0.0556
107. RRIRRRPPRLPRPRPRPHRCPRP  0.0585
108. RRIRSRPPRLPRPRPRPTEAPRP  0.0706
109. RRIRMRPPRLPRPRPRPITKPRP  0.0745
110. RRIRNRPPRLPRPRPRPSPRPRP  0.0772
111. RRIRPRPPRLPRPRPRPCAMPRP  0.0848
112. RRIRHRPPRLPRPRPRPVSAPRP  0.0852
113. RRIRNRPPRLPRPRPRPGFRPRP  0.114
114. RRIRTRPPRLPRPRPRPMQDPRP  0.118
115. RRIRVRPPRLPRPRPRPDETPRP  0.126
116. RRIRHRPPRLPRPRPRPKNLPRP  0.133
117. RRIRVRPPRLPRPRPRPWQPPRP  0.146
118. RRIRTRPPRLPRPRPRPNLGPRP  0.152
119. RRIRDRPPRLPRPRPRPCVTPRP  0.163
120. RRIRLRPPRLPRPRPRPHRLPRP  0.166
121. RRIRTRPPRLPRPRPRPPTHPRP  0.176
122. RRIRKRPPRLPRPRPRPECLPRP  0.182
123. RRIRVRPPRLPRPRPRPAQRPRP  0.184
124. RRIRTRPPRLPRPRPRPKMTPRP  0.214
125. RRIRVRPPRLPRPRPRPTCEPRP  0.243
126. RRIRARPPRLPRPRPRPMWRPRP  0.248
127. RRIRLRPPRLPRPRPRPIAAPRP  0.272
128. RRIRARPPRLPRPRPRPDFFPRP  0.307
129. RRIRWRPPRLPRPRPRPIFEPRP  0.308
130. RRIRERPPRLPRPRPRPQPRPRP  0.328
131. RRIRGRPPRLPRPRPRPNDKPRP  0.342
132. RRIRRRPPRLPRPRPRPRMQPRP  0.372
133. RRIRPRPPRLPRPRPRPAWDPRP  0.431
134. RRIRLRPPRLPRPRPRPIEVPRP  0.434
135. RRIRHRPPRLPRPRPRPMRNPRP  0.435
136. RRIRSRPPRLPRPRPRPQPTPRP  0.447
137. RRIRMRPPRLPRPRPRPEKLPRP  0.462
138. RRIRWRPPRLPRPRPRPKTGPRP  0.491
139. RRIRWRPPRLPRPRPRPKRKPRP  0.502
140. RRIRDRPPRLPRPRPRPLRQPRP  0.565
141. RRIRARPPRLPRPRPRPEGYPRP  0.582
142. RRIRPRPPRLPRPRPRPTERPRP  0.649
143. RRIRLRPPRLPRPRPRPVQPPRP  0.653
144. RRIRYRPPRLPRPRPRPPPDPRP  0.7
145. RRIRSRPPRLPRPRPRPLRSPRP  0.747
146. RRIRGRPPRLPRPRPRPEWWPRP  0.77
147. RRIRARPPRLPRPRPRPTHFPRP  0.809
148. RRIRRRPPRLPRPRPRPAPVPRP  1.06
149. RRIRMRPPRLPRPRPRPEREPRP  1.76
150. RRIRMRPPRLPRPRPRPDGTPRP  2.88
